Here are results for four molecules from JP2008058208A (dated 2008).

The target in test [1] is T1, C−反応性タンパク(CRP), ヒトCRP抗原 (human, UniProt P02741 19-224).
T1 sequence (looked up): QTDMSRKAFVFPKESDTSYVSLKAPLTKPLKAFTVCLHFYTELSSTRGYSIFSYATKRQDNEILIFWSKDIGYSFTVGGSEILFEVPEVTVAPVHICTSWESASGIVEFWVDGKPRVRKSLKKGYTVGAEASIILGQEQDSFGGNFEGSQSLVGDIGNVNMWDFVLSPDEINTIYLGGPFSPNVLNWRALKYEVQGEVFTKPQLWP
The experiment in a line: phage ELISA on plate-coated CRP, detected with HRP/anti-M13.

The next test concerns the target T2, Protein A (Staphylococcus aureus, UniProt P38507 37-477).
T2 construct: also called プロテインA; Staphylococcus aureusが産生するProtein A
The experiment in a line: immunochromatography test strip, His20 as capture and as gold-colloid label; samples of Protein A and S. aureus cell suspensions.

Test [2] has as its target T1, C−反応性タンパク(CRP), ヒトCRP抗原. Description: ELISA of His-tag purified scFv on CRP. For orientation: In an ELISA, binding on a coated surface is turned into a signal by an enzyme label.

B1: 陽性クローン株No.20のファージ抗体 (scFv No.20 displayed on M13 phage) (scFv)
scFv: MAQVKLPESGAELVKPGASVKLSCTPSGFNIKDTYIHWVRQRPGQGLEWIGRIDPANGHTRYAPKFQGKATLTADASSNTAYLHLSSLTSEDTAVYYCPRIVWYSGGYAMDYWGQGTTVTVSSGGGGSGGGGSGGGGSDIELTQSPSSMYASLGERVTITCKASQDINSYLSWFQQKPGKSPKTLIYRANRLVDGVPSRFSGSGSGQDYSLTISSLKYEDMGIYYCLQYDEFPLTFGGGTKLEIKRAA
notes: not shown: C-terminal fusion to the phage coat protein from phagemid pCANTAB5E; not spelled out
B1: the binding result with C−反応性タンパク(CRP), ヒトCRP抗原 [1] was “binds”.

B2: 抗CRPscFv抗体No.20 (His-tagged scFv, His20) (scFv)
scFv: MAQVKLPESGAELVKPGASVKLSCTPSGFNIKDTYIHWVRQRPGQGLEWIGRIDPANGHTRYAPKFQGKATLTADASSNTAYLHLSSLTSEDTAVYYCPRIVWYSGGYAMDYWGQGTTVTVSSGGGGSGGGGSGGGGSDIELTQSPSSMYASLGERVTITCKASQDINSYLSWFQQKPGKSPKTLIYRANRLVDGVPSRFSGSGSGQDYSLTISSLKYEDMGIYYCLQYDEFPLTFGGGTKLEIKRAA
notes: Mouse scFv (VH-(G4S)3 linker-VL) from an immune phage library, expressed in E. coli HB2151 and purified by the His tag; also called No.20抗体; His20 scFv抗体; not shown: C-terminal 6x histidine tag added by a standard method
With B2, the binding result in the test with Protein A is reported as “no binding”.

B3: 陽性クローン株No.40のファージ抗体 (scFv No.40 displayed on M13 phage) (scFv)
scFv: MAQVKLQQSGAEVVKPGASVKLSCKASGYTFIFYHIYWVKQRPGQGLEWIGGINPRSGGTNLNEKFKSKATLTVDKSSSTAYMQLNGLTSEDSAFYYCTRSGTTYDYALDYWGQGTTVTVSSGGGGSGGGGSGGGGSDIELTQSPAIMAASLGQKVTMTCSASSSMSSSYLHWYQQKSGASPKPLIHRTSTLASGVPARFSGSGSGTSYSLTISSVEAEDDATYYCQQWSGYPLTFGGGTKLEIKRAAA
notes: as for B1
With B3, the binding result with C−反応性タンパク(CRP), ヒトCRP抗原 [1] is given as “binds”.

B4: 抗CRPscFv抗体No.40 (His-tagged scFv, His40) (scFv)
scFv: MAQVKLQQSGAEVVKPGASVKLSCKASGYTFIFYHIYWVKQRPGQGLEWIGGINPRSGGTNLNEKFKSKATLTVDKSSSTAYMQLNGLTSEDSAFYYCTRSGTTYDYALDYWGQGTTVTVSSGGGGSGGGGSGGGGSDIELTQSPAIMAASLGQKVTMTCSASSSMSSSYLHWYQQKSGASPKPLIHRTSTLASGVPARFSGSGSGTSYSLTISSVEAEDDATYYCQQWSGYPLTFGGGTKLEIKRAAA
notes: Mouse scFv (VH-(G4S)3 linker-VL) from an immune phage library, expressed in E. coli HB2151 and purified by the His tag; also called No.40抗体; not shown: C-terminal 6x histidine tag added by a standard method
For B4, the binding result in the test with C−反応性タンパク(CRP), ヒトCRP抗原 [2] is reported as “binds”.
